Patent US20040171019

Molecular target: T1, Suc-AEPF-pNA peptide substrate
T1 chain: AEPF

B1: mutant PIN1 PPIase (K77Q/K82Q) (protein)
chain: GSHMGKNGQGEPARVRCSHLLVKHSQSRRPSSWRQEQITRTQEEALELINGYIQKIKSGEEDFESLASQFSDCSSAKARGDLGAFSRGQMQKPFEDASFALRTGEMSGPVFTDSGIHIILRTE
- Km: The Km for this substrate was much higher than 100 µM ([S]<<Km)
- rate (rate constant k of the peptidyl-prolyl isomerase reaction): both wild type human PIN1 and mutant PIN1 PPIAse, at 0.033 nM with 100 µM Suc-AEPF-pNA, had a rate of 0.2
